The target in test [1] is T1, eHead_H1_v3.1_KO1_mC.
T1 chain: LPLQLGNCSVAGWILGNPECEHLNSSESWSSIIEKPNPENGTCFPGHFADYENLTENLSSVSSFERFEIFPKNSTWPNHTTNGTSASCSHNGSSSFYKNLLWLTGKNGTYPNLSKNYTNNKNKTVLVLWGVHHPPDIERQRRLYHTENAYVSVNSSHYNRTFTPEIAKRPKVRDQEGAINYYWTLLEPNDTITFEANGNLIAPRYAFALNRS
Briefly: SPR.

For test [2], the target named is T2, eHead_H1_v3.1_KO3_mC.
T2 chain: T1 chain with L1E, P45W, A178R
The test is described as follows: SPR.

The target of test [3] is T3, eHead_H1_g2.10_mC.
T3 chain: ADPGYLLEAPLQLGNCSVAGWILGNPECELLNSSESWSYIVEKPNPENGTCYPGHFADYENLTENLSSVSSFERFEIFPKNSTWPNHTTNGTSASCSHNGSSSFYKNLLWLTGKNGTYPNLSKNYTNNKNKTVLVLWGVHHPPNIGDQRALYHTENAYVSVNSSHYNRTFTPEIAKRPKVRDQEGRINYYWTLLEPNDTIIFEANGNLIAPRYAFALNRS
The test is described as follows: SPR; y axis without title or unit.

In test [4] the target is T4, eHead_H1_v3.0_mC.
T4 engineered HA head domain: T1 chain with L1E, R139D, A178R
Briefly: SPR; y axis without title or unit.

Changes are numbered by the printed parent chain.

B1: FluA20 (as used in the SPR experiments of Example 4) (antibody, V domains shown)
VH: QVQLQESGPGLVKPSETLSLTCSVSGVSVTSDIYYWTWIRQPPGKGLEWIGYIFYNGDTNYNPSLKSRVTMSIDTSKNEFSLRLTSVTAADTAVYFCARGTEDLGYCSSGSCPNHWGQGTLVTVSS
VL: DIQMTQSPSSLSASIGDRVTITCRPSQNIRSFLNWFQHKPGKAPKLLIYAASNLQSGVPSRFSGSGSGTEFTLTIRSLQPEDFATYYCQQSYNTPPTFGQGTKVEIK
Regarding B1, the binding result in test [1] was “no binding”; in test [2] it was “no binding”; in test [3], “binds”; in test [4], “binds”.

These data come from patent publication US20220387578A1 (VANDERBILT UNIVERSITY, published 2022).
